From patent US8178581B2, “Production of peracids using an enzyme having perhydrolysis activity” (E. I. du Pont de Nemours and Company, priority 2005, dated 2012)

B1: Novozymes Lipolase 100 L type EX: commercial lipase, source Thermomyces lanuginosus (Novozymes) (protein, UniProt O59952 23-291, looked up)
Lipase: EVSQDLFNQFNLFAQYSAAAYCGKNNDAPAGTNITCTGNACPEVEKADATFLYSFEDSGVGDVTGFLALDNTNKLIVLSFRGSRSIENWIGNLNFDLKEINDICSGCRGHDGFTSSWRSVADTLRQKVEDAVREHPDYRVVFTGHSLGGALATVAGADLRGNGYDIDVFSYGAPRVGNRAFAEFLTVQTGGTLYRITHTNDIVPRLPPREFGYSHSSPEYWIKSGTLVPVTRNDIVKIEGIDATGGNNQPNIPDIPAHLWYFGLIGTCL
B2: Novozymes Lipozyme TL 100 L: commercial lipase, source Thermomyces lanuginosus (Novozymes) (protein, UniProt O59952 23-291, looked up)
Lipase: EVSQDLFNQFNLFAQYSAAAYCGKNNDAPAGTNITCTGNACPEVEKADATFLYSFEDSGVGDVTGFLALDNTNKLIVLSFRGSRSIENWIGNLNFDLKEINDICSGCRGHDGFTSSWRSVADTLRQKVEDAVREHPDYRVVFTGHSLGGALATVAGADLRGNGYDIDVFSYGAPRVGNRAFAEFLTVQTGGTLYRITHTNDIVPRLPPREFGYSHSSPEYWIKSGTLVPVTRNDIVKIEGIDATGGNNQPNIPDIPAHLWYFGLIGTCL

Experiment: Perhydrolysis of triacetin with hydrogen peroxide; peracetic acid measured by HPLC method of Karst et al.
Type: biochemical
Settings: Table 14: triacetin 250 mM, H2O2 1.0 M, pH 6.5, 25° C., 50 μg/mL of commercial lipase
Procedure: Determination of the concentration of peracetic acid in the reaction mixture was performed according to the method described by Karst et al. Aliquots (0.250 mL) of the reaction mixture were removed at 10 min and 30 min and filtered using an Ultrafree® MC-filter unit (30,000 Normal Molecular Weight Limit (NMWL), Millipore cat #UFC3LKT 00) by centrifugation for 2 min at 12,000 rpm; removal of the protein component of the aliquot by filtration terminated the reaction. An aliquot (0.100 mL) of the resulting filtrate was transferred to 1.5-mL screw cap HPLC vial (Agilent Technologies, Palo Alto, Calif.; #5182-0715) containing 0.300 mL of deionized water, then 0.100 mL of 20 mM MTS (methyl-p-tolyl-sulfide) in acetonitrile was added, the vials capped, and the contents briefly mixed prior to a 10 min incubation at ca. 25° C. in the absence of light. To each vial was then added 0.400 mL of acetonitrile and 0.100 mL of a solution of triphenylphosphine (TPP, 40 mM) in acetonitrile, the vials re-capped, and the resulting solution mixed and incubated at ca. 25° C. for 30 min in the absence of light. To each vial was then added 0.100 mL of 10 mM N,N-diethyl-m-toluamide (DEET; HPLC external standard) and the resulting solution analyzed by HPLC as described below.
Supelco Discovery C8 column (10-cm×4.0-mm, 5 μm) (cat. #569422-U) w/precolumn Supelco Supelguard Discovery C8 (Sigma-Aldrich; cat #59590-U); 10 microliter injection volume; gradient method with CH3CN (Sigma-Aldrich; #270717) and deionized H2O at 1.0 mL/min and ambient temperature: […]
An extract of E. coli UM2/pSW186 transformant (20 mg total protein/mL extract, prepared as described in Example 21) was employed in 1.0 mL perhydrolysis reactions (run as described in Example 21) containing triacetin (40 mM or 100 mM), hydrogen peroxide (40 mM or 100 mM) and extract total protein (0.1 mg/mL or 1.0 mg/mL) in phosphate buffer (Pi, 100 mM, 200 mM or 300 mM) at pH 6.5 or 7.5 at 25° C. each reaction (Table 11).
Separate 1.0 mL reactions containing triacetin (250 mM), hydrogen peroxide (1.0 M) and 50 μg of extract total protein in 50 mM phosphate buffer (pH 6.5) were run at 25° C. with each transformant extract. […] The concentration of peracetic acid in the reaction mixtures (Table 12) was determined according to the method of Karst et al. as described in Example 2.
Separate 1-mL reactions containing triacetin (250 mM), hydrogen peroxide (1.0 M) and 50 μg of extract total protein from a cell extract (prepared as described above) in 50 mM phosphate buffer (pH 6.5) were run at 25° C. […] The concentration of peracetic acid in the reaction mixtures (Table 13) was determined according to the method of Karst et al. described in Example 2. […]

Row | Molecule | PAA (ppm); 5 min [ppm] | PAA (ppm); 30 min [ppm]
1 | B1 | 10 | 0
2 | B2 | 125 | 370
